The text below walks through data of US20180009892A1.

The target of assay [1] is T1, human ROR1 extracellular domain (ECD) protein (human), Q01973. The assay can be described thus: ForteBio Octet, Wnt5a binding to ROR1 in the presence of antibody 601-3-2. (In BLI a coated tip is dipped into the sample, and binding shifts an interference pattern.)
The target in assay [2] is T1, human ROR1 extracellular domain (ECD) …. Description: ForteBio Octet, Wnt5a binding to ROR1 in the presence of the control mAb.
Assay [3] shares this target. Description: ForteBio Octet, Wnt5a binding to ROR1 in the presence of antibody 601-3-12.
Assay [4] shares this target. The assay can be described thus: ForteBio Octet, Wnt5a binding to ROR1 in the presence of antibody 601-3-16.

T1 sequence (Q01973 30-406 limits assumed): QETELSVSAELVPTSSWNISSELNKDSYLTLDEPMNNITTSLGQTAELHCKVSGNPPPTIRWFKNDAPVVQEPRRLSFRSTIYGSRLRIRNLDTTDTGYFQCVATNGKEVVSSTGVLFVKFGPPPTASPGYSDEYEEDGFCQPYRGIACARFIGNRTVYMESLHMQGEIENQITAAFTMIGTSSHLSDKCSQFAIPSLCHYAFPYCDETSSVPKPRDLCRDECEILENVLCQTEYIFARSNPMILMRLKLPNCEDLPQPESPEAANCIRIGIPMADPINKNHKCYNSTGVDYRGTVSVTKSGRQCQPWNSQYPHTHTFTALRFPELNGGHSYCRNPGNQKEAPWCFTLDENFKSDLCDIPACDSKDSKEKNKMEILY

B1: Wnt5a, P41221 62-380 (ligand, UniProt P41221 62-380, looked up)
chain: IIGAQPLCSQLAGLSQGQKKLCHLYQDHMQYIGEGAKTGIKECQYQFRHRRWNCSTVDNTSVFGRVMQIGSRETAFTYAVSAAGVVNAMSRACREGELSTCGCSRAARPKDLPRDWLWGGCGDNIDYGYRFAKEFVDARERERIHAKGSYESARILMNLHNNEAGRRTVYNLADVACKCHGVSGSCSLKTCWLQLADFRKVGDALKEKYDSAAAMRLNSRGKLVQVNSRFNSPTTQDLVYIDPSPDYCVRNESTGSLGTQGRLCNKTSEGMDGCELMCCGRGYDQFKTVQTERCHCKFHWCCYVKCKKCTEIVDQFVCK
On to B1, for which the Pesudo ka amounted to 13000 M⁻¹ s⁻¹ in assay [1], 21000 M⁻¹ s⁻¹ in assay [2], 5300 M⁻¹ s⁻¹ in assay [3] and 6700 M⁻¹ s⁻¹ in assay [4].
